One experiment deals with T1, EB1 (UniProt Q15691 2-268).
T1 construct: Endogenous protein detected by immunoblot or mass spectrometry; also called endogenous EB1
T1 sequence (looked up): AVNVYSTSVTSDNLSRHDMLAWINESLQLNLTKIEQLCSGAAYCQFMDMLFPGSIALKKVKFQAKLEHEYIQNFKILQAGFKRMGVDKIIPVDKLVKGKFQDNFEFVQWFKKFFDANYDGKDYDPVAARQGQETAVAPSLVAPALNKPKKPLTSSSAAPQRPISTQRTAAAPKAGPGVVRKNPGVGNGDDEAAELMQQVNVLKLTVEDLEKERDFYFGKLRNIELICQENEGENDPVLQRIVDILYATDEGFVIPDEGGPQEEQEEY
Nature of the experiment: anti-FLAG co-immunoprecipitation, immunoblot. How it is done: (§1) After anti-FLAG immunoprecipitation, the immunoprecipitates and inputs were probed on immunoblots. […] Scale bars, 5 μm.
(§2) Anti-FLAG immunoprecipitation was performed using anti-FLAG-coupled beads (M2, Sigma) in cell extracts prepared with a lysis buffer (20 mM Tris-HCl, pH7.4, 150 mM NaCl, 1 mM EDTA, 1% Triton X-100, 1 mM dithiothreitol, and the Protease Inhibitor Cocktail). Immunoprecipitated proteins were detected by immunoblotting.
On the technique in general: Immunoblotting shows a protein as a band on a membrane.

The target in another experiment is T2, AKAP450 (UniProt Q99996 1-3907, limits assumed).
T2 construct: Endogenous protein detected by immunoblot; also called AKAP350; CG-NAP
As to the kind of experiment: anti-FLAG co-immunoprecipitation from HEK293T, immunoblot. How it is done: The immunoprecipitated proteins and inputs were analyzed by immunoblotting and quantified. […] Data shown are means±S.D. from three independent experiments. […] The arrow indicates a transfected cell. Boxed areas are enlarged. Scale bars, 5 μm.
as §2

The target of a further experiment is T3, GFP-EB3 (UniProt Q9UPY8 1-281).
T3 construct: not shown: GFP tag
As to the kind of experiment: anti-FLAG co-immunoprecipitation from HEK293T, anti-GFP immunoblot. How it is done: as §1, §2

T2 sequence (Q99996 whole entry): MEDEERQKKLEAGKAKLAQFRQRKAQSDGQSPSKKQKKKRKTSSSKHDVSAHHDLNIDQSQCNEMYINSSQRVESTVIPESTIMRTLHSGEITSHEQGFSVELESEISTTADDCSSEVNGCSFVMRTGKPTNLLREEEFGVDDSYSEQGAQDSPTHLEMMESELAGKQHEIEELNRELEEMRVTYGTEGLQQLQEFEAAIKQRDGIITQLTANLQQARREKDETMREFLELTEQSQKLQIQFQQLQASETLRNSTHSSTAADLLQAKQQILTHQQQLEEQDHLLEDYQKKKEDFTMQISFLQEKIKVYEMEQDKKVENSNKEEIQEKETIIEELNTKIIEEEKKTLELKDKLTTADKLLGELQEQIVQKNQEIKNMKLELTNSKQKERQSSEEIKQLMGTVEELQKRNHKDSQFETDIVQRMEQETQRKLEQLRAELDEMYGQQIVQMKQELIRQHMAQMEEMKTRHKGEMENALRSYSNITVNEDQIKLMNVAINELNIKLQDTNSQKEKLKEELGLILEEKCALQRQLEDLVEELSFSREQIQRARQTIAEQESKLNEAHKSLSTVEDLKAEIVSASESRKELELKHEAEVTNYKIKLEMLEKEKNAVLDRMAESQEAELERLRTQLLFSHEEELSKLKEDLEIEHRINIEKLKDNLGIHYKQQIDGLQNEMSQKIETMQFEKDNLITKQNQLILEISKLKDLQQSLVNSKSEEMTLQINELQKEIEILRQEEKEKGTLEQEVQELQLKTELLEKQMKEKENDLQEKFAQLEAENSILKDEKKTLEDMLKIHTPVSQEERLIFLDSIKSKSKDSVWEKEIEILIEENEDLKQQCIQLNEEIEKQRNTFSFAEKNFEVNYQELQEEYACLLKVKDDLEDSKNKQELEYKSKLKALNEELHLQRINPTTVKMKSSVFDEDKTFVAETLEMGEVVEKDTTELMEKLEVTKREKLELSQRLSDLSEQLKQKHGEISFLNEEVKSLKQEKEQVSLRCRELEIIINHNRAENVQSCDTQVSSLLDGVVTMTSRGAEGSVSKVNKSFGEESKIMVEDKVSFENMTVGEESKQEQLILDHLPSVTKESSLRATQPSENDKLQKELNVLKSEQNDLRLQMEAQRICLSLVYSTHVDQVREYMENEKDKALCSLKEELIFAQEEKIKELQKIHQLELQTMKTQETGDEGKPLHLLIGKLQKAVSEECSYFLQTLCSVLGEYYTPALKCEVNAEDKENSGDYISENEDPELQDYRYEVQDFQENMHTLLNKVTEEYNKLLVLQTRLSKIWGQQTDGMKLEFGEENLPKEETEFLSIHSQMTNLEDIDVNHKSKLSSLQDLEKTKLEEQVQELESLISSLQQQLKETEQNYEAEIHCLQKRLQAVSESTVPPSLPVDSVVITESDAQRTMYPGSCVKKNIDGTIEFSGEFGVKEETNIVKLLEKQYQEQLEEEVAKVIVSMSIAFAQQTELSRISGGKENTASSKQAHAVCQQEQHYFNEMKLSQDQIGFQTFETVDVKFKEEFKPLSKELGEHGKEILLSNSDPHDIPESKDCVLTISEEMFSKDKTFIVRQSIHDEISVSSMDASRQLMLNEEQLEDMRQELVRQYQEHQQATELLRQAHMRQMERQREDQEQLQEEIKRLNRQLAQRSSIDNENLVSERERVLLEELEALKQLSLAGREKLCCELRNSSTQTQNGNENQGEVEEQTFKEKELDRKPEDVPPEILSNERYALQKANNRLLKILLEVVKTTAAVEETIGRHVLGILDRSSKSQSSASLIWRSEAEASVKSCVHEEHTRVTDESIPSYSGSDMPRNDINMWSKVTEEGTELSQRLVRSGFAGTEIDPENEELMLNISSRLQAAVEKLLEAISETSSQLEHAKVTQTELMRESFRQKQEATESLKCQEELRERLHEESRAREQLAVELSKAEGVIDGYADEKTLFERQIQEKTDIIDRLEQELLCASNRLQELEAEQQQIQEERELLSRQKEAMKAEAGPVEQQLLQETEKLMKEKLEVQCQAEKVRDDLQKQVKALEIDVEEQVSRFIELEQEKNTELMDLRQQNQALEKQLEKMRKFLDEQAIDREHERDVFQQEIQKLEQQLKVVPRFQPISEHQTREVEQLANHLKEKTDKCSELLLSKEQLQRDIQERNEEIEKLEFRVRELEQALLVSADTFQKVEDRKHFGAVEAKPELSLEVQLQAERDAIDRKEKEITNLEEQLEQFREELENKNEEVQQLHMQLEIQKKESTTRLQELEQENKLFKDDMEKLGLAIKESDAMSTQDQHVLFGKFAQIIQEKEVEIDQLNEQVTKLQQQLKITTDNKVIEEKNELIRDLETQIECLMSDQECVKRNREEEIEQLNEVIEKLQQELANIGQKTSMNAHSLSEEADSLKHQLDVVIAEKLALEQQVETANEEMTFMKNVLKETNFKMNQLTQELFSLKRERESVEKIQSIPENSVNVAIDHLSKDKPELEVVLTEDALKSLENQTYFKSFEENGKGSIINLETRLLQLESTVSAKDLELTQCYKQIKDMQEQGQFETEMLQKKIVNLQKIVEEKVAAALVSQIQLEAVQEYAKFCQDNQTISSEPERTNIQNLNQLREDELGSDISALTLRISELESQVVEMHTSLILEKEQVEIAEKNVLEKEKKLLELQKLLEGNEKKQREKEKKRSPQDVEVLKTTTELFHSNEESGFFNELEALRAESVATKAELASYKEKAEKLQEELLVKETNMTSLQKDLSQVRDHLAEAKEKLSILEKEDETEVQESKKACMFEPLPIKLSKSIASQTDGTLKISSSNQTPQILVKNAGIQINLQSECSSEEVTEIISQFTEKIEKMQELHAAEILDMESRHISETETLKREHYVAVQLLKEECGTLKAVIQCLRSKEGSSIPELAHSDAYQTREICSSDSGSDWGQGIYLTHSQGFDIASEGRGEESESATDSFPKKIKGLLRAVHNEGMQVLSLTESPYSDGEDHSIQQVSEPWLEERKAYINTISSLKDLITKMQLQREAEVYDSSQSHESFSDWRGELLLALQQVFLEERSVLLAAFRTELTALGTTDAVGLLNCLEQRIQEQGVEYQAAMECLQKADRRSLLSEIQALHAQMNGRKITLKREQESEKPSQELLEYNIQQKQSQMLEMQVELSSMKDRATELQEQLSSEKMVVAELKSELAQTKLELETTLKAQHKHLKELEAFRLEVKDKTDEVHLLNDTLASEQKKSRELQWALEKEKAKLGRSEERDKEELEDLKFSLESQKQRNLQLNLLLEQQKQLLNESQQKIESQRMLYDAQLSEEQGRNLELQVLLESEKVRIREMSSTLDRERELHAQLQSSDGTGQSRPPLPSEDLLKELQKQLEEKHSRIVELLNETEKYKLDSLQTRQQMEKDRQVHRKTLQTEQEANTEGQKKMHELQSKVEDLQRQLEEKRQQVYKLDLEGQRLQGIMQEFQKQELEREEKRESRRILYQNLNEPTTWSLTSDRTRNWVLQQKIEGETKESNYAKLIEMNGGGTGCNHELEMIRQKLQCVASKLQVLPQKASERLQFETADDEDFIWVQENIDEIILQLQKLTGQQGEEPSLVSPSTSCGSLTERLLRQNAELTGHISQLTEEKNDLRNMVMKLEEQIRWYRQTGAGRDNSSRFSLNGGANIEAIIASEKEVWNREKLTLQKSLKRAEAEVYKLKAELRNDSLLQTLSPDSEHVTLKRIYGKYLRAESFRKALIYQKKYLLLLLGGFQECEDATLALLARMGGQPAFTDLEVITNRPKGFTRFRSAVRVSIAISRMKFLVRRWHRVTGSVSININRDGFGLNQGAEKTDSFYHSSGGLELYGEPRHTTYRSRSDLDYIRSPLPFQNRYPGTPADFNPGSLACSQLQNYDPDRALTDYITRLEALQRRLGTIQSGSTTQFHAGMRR
T3 sequence (Q9UPY8 whole entry): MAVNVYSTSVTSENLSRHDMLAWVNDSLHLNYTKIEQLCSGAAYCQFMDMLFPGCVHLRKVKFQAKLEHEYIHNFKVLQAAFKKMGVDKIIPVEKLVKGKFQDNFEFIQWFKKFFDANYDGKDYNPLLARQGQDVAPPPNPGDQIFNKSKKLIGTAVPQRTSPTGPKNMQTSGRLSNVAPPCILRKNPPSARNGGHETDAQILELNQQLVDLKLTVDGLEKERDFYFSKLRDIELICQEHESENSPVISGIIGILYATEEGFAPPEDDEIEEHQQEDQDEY

B1: FLAG-tagged MMG8 fragment 1-389 (L311A/P312A) (other)
chain: MKEICRICARELCGNQRRWIFHTASKLNLQVLLSHVLGKDVPRDGKAEFACSKCAFMLDRIYRFDTVIARIEALSIERLQKLLLEKDRLKFCIASMYRKNNDDSGAEIKAGNGTVDMSVLPDARYSALLQEDFAYSGFECWVENEDQIQEPHSCHGSEGPGNRPRRCRGCAALRVADSDYEAICKVPRKVARSISCGPSSRWSTSICTEEPALSEVGPPDLASTKVPPDGESMEEETPGSSVESLDASVQASPPQQKDEETERSAKELGKCDCCSDDQAPQHGCNHKLELALSMIKGLDYKPIQSPRGSRAAIPVKSSLPGAKPGPSMTDGVSSGFLNRSLKPLYKTPVSYPLELSDLQELWDDLCEDYLPLRVQPMTEELLKQQKLNS
notes: not shown: FLAG tag
B1: the binding result with EB1 is reported as “no binding”.

B2: FLAG-tagged MMG8 fragment 390-1116 (other)
chain: HETTITQQSVSDSHLAELQEKIQQTEATNKILQEKLNEMSYELKCAQESSQKQDGTIQNLKETLKSRERETEELYQVIEGQNDTMAKLREMLHQSQLGQLHSSEGTSPAQQQVALLDLQSALFCSQLEIQKLQRVVRQKERQLADAKQCVQFVEAAAHESEQQKEASWKHNQELRKALQQLQEELQNKSQQLRAWEAEKYNEIRTQEQNIQHLNHSLSHKEQLLQEFRELLQYRDNSDKTLEANEMLLEKLRQRIHDKAVALERAIDEKFSALEEKEKELRQLRLAVRERDHDLERLRDVLSSNEATMQSMESLLRAKGLEVEQLSTTCQNLQWLKEEMETKFSRWQKEQESIIQQLQTSLHDRNKEVEDLSATLLCKLGPGQSEIAEELCQRLQRKERMLQDLLSDRNKQVLEHEMEIQGLLQSVSTREQESQAAAEKLVQALMERNSELQALRQYLGGRDSLMSQAPISNQQAEVTPTGRLGKQTDQGSMQIPSRDDSTSLTAKEDVSIPRSTLGDLDTVAGLEKELSNAKEELELMAKKERESQMELSALQSMMAVQEEELQVQAADMESLTRNIQIKEDLIKDLQMQLVDPEDIPAMERLTQEVLLLREKVASVESQGQEISGNRRQQLLLMLEGLVDERSRLNEALQAERQLYSSLVKFHAHPESSERDRTLQVELEGAQVLRSRLEEVLGRSLERLNRLETLAAIGGGELESVRIHHKHAY
notes: not shown: FLAG tag
With B2, the binding result with AKAP450 is on record as “no binding”.

B3: FLAG-tagged full-length MMG8(L311A/P312A) (other)
chain: MKEICRICARELCGNQRRWIFHTASKLNLQVLLSHVLGKDVPRDGKAEFACSKCAFMLDRIYRFDTVIARIEALSIERLQKLLLEKDRLKFCIASMYRKNNDDSGAEIKAGNGTVDMSVLPDARYSALLQEDFAYSGFECWVENEDQIQEPHSCHGSEGPGNRPRRCRGCAALRVADSDYEAICKVPRKVARSISCGPSSRWSTSICTEEPALSEVGPPDLASTKVPPDGESMEEETPGSSVESLDASVQASPPQQKDEETERSAKELGKCDCCSDDQAPQHGCNHKLELALSMIKGLDYKPIQSPRGSRAAIPVKSSLPGAKPGPSMTDGVSSGFLNRSLKPLYKTPVSYPLELSDLQELWDDLCEDYLPLRVQPMTEELLKQQKLNSHETTITQQSVSDSHLAELQEKIQQTEATNKILQEKLNEMSYELKCAQESSQKQDGTIQNLKETLKSRERETEELYQVIEGQNDTMAKLREMLHQSQLGQLHSSEGTSPAQQQVALLDLQSALFCSQLEIQKLQRVVRQKERQLADAKQCVQFVEAAAHESEQQKEASWKHNQELRKALQQLQEELQNKSQQLRAWEAEKYNEIRTQEQNIQHLNHSLSHKEQLLQEFRELLQYRDNSDKTLEANEMLLEKLRQRIHDKAVALERAIDEKFSALEEKEKELRQLRLAVRERDHDLERLRDVLSSNEATMQSMESLLRAKGLEVEQLSTTCQNLQWLKEEMETKFSRWQKEQESIIQQLQTSLHDRNKEVEDLSATLLCKLGPGQSEIAEELCQRLQRKERMLQDLLSDRNKQVLEHEMEIQGLLQSVSTREQESQAAAEKLVQALMERNSELQALRQYLGGRDSLMSQAPISNQQAEVTPTGRLGKQTDQGSMQIPSRDDSTSLTAKEDVSIPRSTLGDLDTVAGLEKELSNAKEELELMAKKERESQMELSALQSMMAVQEEELQVQAADMESLTRNIQIKEDLIKDLQMQLVDPEDIPAMERLTQEVLLLREKVASVESQGQEISGNRRQQLLLMLEGLVDERSRLNEALQAERQLYSSLVKFHAHPESSERDRTLQVELEGAQVLRSRLEEVLGRSLERLNRLETLAAIGGGELESVRIHHKHAY
notes: also called L311A/P312A mutant; not shown: FLAG tag
For the molecule B3, the binding result in the experiment with EB1 and with GFP-EB3 was “no binding” each time.
